Laboratory results published in PMC2891831, “Insight into the Mechanisms of Adenovirus Capsid Disassembly from Studies of Defensin Neutralization” (PLoS Pathogens, 2010).

System: Ad5.eGFP
Experiment: Ad5.eGFP infection, eGFP-positive cells by flow cytometry
Format: cell-based, human adenovirus
Settings: 15 µM defensin, percent eGFP positive cells vs. no defensin, at least three independent experiments
Description: To gain further insight into the defensin-HAdV interaction, we assessed the requirement for two conserved structural elements on the anti-AdV activity of HD5. All defensins have three disulfide bonds (Figure 3A). […] The antibacterial properties of defensins, which are dependent upon protein-lipid interactions, are not uniformly conformation dependent [27]–[29]. […] In contrast, defensin-related chemokine activity, which relies on protein-protein interactions, is dependent on defensin conformation. We hypothesized that the defensin-capsid interaction for sensitive serotypes would likely be dependent upon defensin conformation, as this would be more typical for protein-protein interactions. […]
Figure 3 HD5 antiviral activity is structure dependent. […] C) Binding of Alexa Fluor 488-labeled HAdV-5 to cells was assessed after incubation with or without 20 µM HD5 or HD5-Abu and in competition with 100 nM 5FK or 16 FK. Data are the mean fold increase in geometric mean fluorescence compared to cells alone and are of at least 10,000 cells from each of three independent experiments ± SD.
To test the activity of HD5 derivates, Ad5.eGFP was incubated with 15 µM of HD5, HD5-Abu, or HD5-E14Q. Infectivity was assessed by enumerating eGFP-positive cells by flow cytometry as described.

B1: HD5-E14Q: HD5 containing a substitution of glutamine for glutamic acid 14, to disrupt the conserved salt bridge (peptide, UniProt Q01523 20-94, looked up, variant E14Q)
Defensin alpha 5: ESLQERADEATTQKQSGEDNQDLAISFAGNGLSALRTSGSQARATCYCRTGRCATRQSLSGVCEISGRLYRLCCR
modifications: Defensin-5
notes: HD5 containing a substitution of glutamine for glutamic acid 14, to disrupt the conserved salt bridge
antiviral activity against Ad5.eGFP: no effect on antiviral activity
